Source: patent US20210032331A1 (PHANES THERAPEUTICS, published 2021)

Biological target: T1, human LAG-3(ECD)-mFc (human, UniProt P18627 23-450)
T1 construct: also called hLAG3-mFc; human LAG-3 extracellular domain (ECD) fused to mouse Fc; not shown: mouse Fc
T1 sequence: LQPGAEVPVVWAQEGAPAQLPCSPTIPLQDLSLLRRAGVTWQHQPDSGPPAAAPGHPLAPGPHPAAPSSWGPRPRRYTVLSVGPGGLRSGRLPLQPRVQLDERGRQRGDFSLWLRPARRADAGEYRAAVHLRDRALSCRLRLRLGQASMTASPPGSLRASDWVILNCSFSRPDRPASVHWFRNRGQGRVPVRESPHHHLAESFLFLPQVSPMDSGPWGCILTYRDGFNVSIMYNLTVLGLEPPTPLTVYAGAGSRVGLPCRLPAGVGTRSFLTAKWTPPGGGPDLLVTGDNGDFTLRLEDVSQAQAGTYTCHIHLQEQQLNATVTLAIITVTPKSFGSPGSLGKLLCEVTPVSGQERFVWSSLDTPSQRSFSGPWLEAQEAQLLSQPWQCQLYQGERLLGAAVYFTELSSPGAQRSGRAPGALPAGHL
Experiment: ELISA: chimeric IgG1 B12 with hLAG3-mFc in solution, captured on anti-human IgG, anti-mouse IgG-HRP
Protocol: FIGS. 5A-5D show the effect of competition peptides on LAG-3 binding to anti-LAG-3 mAbs. […] B5/IgG4 was preincubated with a competition peptide for 30 minutes. Then human LAG-3 extracellular domain (ECD) fused to mouse Fc (hLAG3-mFc) was added (the final peptide concentration was 600-fold that of hLAG3-mFc) and the mixture was incubated for 60 minutes before being added to an ELISA plate coated with anti-human IgG. The incubation was carried out at 4° C. overnight. After washing, the hLAG3-mFc bound to the immobilized B5/IgG4 on the ELISA plate was detected by adding anti-mouse IgG conjugated to horseradish peroxidase (HRP) and incubating for 60 minutes. Then, after washing, the ELISA was developed using One-step Detection Solution and measured as the absorbance at 450 nm.
Anti-human IgG in carbonate coating buffer was coated on an ELISA plate at 4° C. (50 μL/well at 1 μg/mL) overnight. […] The plate was washed and the binding of hLAG3-mFc to the immobilized anti-LAG-3 mAb was detected by adding anti-mouse IgG conjugated to horseradish peroxidase ([…]) (ThermoFisher Scientific, Cat#: A16084; Waltham, Mass.) and incubating for 60 minutes.

binding result: binds
B1: B12 (human IgG1 heavy chain and kappa light chain chimeric) (antibody, V domains shown)
VH: EVKLLESGGSLVQPGGSLKLSCAASGFDFSRYWMSWVRQAPGKGLEWIGEINPDSSTINYTPSLRDEFIISRDNAKNTLFLQMSKVISEDTALYYCARITSGYYFDYWGQGTTLTVSS
VL: DVVMTQTPLSLPVSLGDQASISCRSSQTIVYSNGNTYLYWYLQKPGQSPKLLIYRVSNRFPGVPDRFSGSGSGTDFTLKISGVEAEDMGVYYCFQGTHVPFTFGSGTKLEMK
notes: Chimeric: mouse VH and VL with human IgG1 heavy chain and kappa light chain constant regions
